Consider one substance from PMC3414502.

The test addresses CPM-PH-PLCß2 (N-terminal PH domain of PLCβ2). The test is described as follows: other fluorescence titration; unlabelled γ-synuclein added in steps to CPM-labelled protein in solution (2 nM CPM-PLCβ2, also 0.5 nM); increase of CPM intensity; 20 mM Hepes pH 7.2, 160 mM NaCl, 1 mM DTT.

Human γ-synuclein, sequence (O76070 whole entry): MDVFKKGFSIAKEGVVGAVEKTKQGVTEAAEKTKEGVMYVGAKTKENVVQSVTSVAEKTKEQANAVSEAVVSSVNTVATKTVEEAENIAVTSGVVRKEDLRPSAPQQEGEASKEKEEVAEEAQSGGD
CPM-PH-PLCß2 (N-terminal PH domain of PLCβ2), sequence (Q00722 whole entry, the tested form may be a part): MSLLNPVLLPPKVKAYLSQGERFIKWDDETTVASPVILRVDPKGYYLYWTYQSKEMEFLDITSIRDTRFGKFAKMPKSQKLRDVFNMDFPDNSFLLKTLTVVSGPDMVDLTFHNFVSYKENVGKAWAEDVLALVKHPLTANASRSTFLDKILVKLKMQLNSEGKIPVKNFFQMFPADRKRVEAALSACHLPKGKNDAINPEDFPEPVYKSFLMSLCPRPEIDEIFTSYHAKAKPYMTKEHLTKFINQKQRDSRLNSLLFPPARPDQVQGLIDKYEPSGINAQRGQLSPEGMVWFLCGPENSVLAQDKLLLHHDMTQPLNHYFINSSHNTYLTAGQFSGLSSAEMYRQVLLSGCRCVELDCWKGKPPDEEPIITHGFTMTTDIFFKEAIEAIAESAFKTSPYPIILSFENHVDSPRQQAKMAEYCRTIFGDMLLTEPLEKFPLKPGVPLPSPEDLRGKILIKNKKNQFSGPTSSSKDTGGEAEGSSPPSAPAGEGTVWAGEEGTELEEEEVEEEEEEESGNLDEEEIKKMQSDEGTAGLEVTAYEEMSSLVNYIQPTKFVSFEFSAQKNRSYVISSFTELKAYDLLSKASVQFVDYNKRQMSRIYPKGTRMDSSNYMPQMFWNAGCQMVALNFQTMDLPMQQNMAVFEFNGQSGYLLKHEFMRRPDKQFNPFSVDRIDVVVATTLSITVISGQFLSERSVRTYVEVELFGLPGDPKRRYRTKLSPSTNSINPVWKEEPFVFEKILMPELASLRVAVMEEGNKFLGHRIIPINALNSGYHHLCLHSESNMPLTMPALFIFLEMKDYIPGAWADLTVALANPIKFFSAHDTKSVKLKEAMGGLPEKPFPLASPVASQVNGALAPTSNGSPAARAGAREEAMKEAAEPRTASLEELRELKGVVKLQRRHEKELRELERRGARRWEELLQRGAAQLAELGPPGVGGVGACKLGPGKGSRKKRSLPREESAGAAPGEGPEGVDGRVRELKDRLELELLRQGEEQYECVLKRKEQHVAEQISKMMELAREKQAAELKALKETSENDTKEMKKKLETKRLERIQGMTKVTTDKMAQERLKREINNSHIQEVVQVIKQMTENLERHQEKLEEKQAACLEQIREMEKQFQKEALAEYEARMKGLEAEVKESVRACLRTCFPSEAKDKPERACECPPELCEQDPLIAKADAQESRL

Consider “Human γ-synuclein (from UniProt O76070 1-127) (natural protein)”, for which the fold weaker affinity than for full length CPM-PLCβ2 was greater than 50 fold.
